Source: paper PMC7367873, “Dissecting the sequence determinants for dephosphorylation by the catalytic subunits of phosphatases PP1 and PP2A” (Nature Communications, 2020)

B1: NAT10 (protein, UniProt Q9H0A0 1-1025, looked up)
RNA cytidine acetyltransferase: MHRKKVDNRIRILIENGVAERQRSLFVVVGDRGKDQVVILHHMLSKATVKARPSVLWCYKKELGFSSHRKKRMRQLQKKIKNGTLNIKQDDPFELFIAATNIRYCYYNETHKILGNTFGMCVLQDFEALTPNLLARTVETVEGGGLVVILLRTMNSLKQLYTVTMDVHSRYRTEAHQDVVGRFNERFILSLASCKKCLVIDDQLNILPISSHVATMEALPPQTPDESLGPSDLELRELKESLQDTQPVGVLVDCCKTLDQAKAVLKFIEGISEKTLRSTVALTAARGRGKSAALGLAIAGAVAFGYSNIFVTSPSPDNLHTLFEFVFKGFDALQYQEHLDYEIIQSLNPEFNKAVIRVNVFREHRQTIQYIHPADAVKLGQAELVVIDEAAAIPLPLVKSLLGPYLVFMASTINGYEGTGRSLSLKLIQQLRQQSAQSQVSTTAENKTTTTARLASARTLYEVSLQESIRYAPGDAVEKWLNDLLCLDCLNITRIVSGCPLPEACELYYVNRDTLFCYHKASEVFLQRLMALYVASHYKNSPNDLQMLSDAPAHHLFCLLPPVPPTQNALPEVLAVIQVCLEGEISRQSILNSLSRGKKASGDLIPWTVSEQFQDPDFGGLSGGRVVRIAVHPDYQGMGYGSRALQLLQMYYEGRFPCLEEKVLETPQEIHTVSSEAVSLLEEVITPRKDLPPLLLKLNERPAERLDYLGVSYGLTPRLLKFWKRAGFVPVYLRQTPNDLTGEHSCIMLKTLTDEDEADQGGWLAAFWKDFRRRFLALLSYQFSTFSPSLALNIIQNRNMGKPAQPALSREELEALFLPYDLKRLEMYSRNMVDYHLIMDMIPAISRIYFLNQLGDLALSAAQSALLLGIGLQHKSVDQLEKEIELPSGQLMGLFNRIIRKVVKLFNEVQEKAIEEQMVAAKDVVMEPTMKTLSDDLDEAAKEFQEKHKKEVGKLKSMDLSEYIIRGDDEEWNEVLNKAGPNASIISLKSDKKRKLEAKQEPKQSKKLKNRETKNKKDMKLKRKK
B2: WDR36 (protein, UniProt Q8NI36 1-895, looked up)
WD repeat-containing protein …: MERASERRTASALFAGFRALGLFSNDIPHVVRFSALKRRFYVTTCVGKSFHTYDVQKLSLVAVSNSVPQDICCMAADGRLVFAAYGNVFSAFARNKEIVHTFKGHKAEIHFLQPFGDHIISVDTDGILIIWHIYSEEEYLQLTFDKSVFKISAILHPSTYLNKILLGSEQGSLQLWNVKSNKLLYTFPGWKVGVTALQQAPAVDVVAIGLMSGQVIIHNIKFNETLMKFRQDWGPITSISFRTDGHPVMAAGSPCGHIGLWDLEDKKLINQMRNAHSTAIAGLTFLHREPLLVTNGADNALRIWIFDGPTGEGRLLRFRMGHSAPLTNIRYYGQNGQQILSASQDGTLQSFSTVHEKFNKSLGHGLINKKRVKRKGLQNTMSVRLPPITKFAAEEARESDWDGIIACHQGKLSCSTWNYQKSTIGAYFLKPKELKKDDITATAVDITSCGNFAVIGLSSGTVDVYNMQSGIHRGSFGKDQAHKGSVRGVAVDGLNQLTVTTGSEGLLKFWNFKNKILIHSVSLSSSPNIMLLHRDSGILGLALDDFSISVLDIETRKIVREFSGHQGQINDMAFSPDGRWLISAAMDCSIRTWDLPSGCLIDCFLLDSAPLNVSMSPTGDFLATSHVDHLGIYLWSNISLYSVVSLRPLPADYVPSIVMLPGTCQTQDVEVSEETVEPSDELIEYDSPEQLNEQLVTLSLLPESRWKNLLNLDVIKKKNKPKEPPKVPKSAPFFIPTIPGLVPRYAAPEQNNDPQQSKVVNLGVLAQKSDFCLKLEEGLVNNKYDTALNLLKESGPSGIETELRSLSPDCGGSIEVMQSFLKMIGMMLDRKRDFELAQAYLALFLKLHLKMLPSEPVLLEEITNLSSQVEENWTHLQSLFNQSMCILNYLKSALL
B3: CANX (protein, UniProt P27824 21-592, looked up)
Calnexin: HDGHDDDVIDIEDDLDDVIEEVEDSKPDTTAPPSSPKVTYKAPVPTGEVYFADSFDRGTLSGWILSKAKKDDTDDEIAKYDGKWEVEEMKESKLPGDKGLVLMSRAKHHAISAKLNKPFLFDTKPLIVQYEVNFQNGIECGGAYVKLLSKTPELNLDQFHDKTPYTIMFGPDKCGEDYKLHFIFRHKNPKTGIYEEKHAKRPDADLKTYFTDKKTHLYTLILNPDNSFEILVDQSVVNSGNLLNDMTPPVNPSREIEDPEDRKPEDWDERPKIPDPEAVKPDDWDEDAPAKIPDEEATKPEGWLDDEPEYVPDPDAEKPEDWDEDMDGEWEAPQIANPRCESAPGCGVWQRPVIDNPNYKGKWKPPMIDNPSYQGIWKPRKIPNPDFFEDLEPFRMTPFSAIGLELWSMTSDIFFDNFIICADRRIVDDWANDGWGLKKAADGAAEPGVVGQMIEAAEERPWLWVVYILTVALPVFLVILFCCSGKKQTSGMEYKKTDAPQPDVKEEEEEKEEEKDKGDEEEEGEEKLEEKQKSDAEEDGGTVSQEEEDRKPKAEEDEILNRSPRNRKPRRE
B4: XPOT (protein, UniProt O43592 1-962, looked up)
Exportin-T: MDEQALLGLNPNADSDFRQRALAYFEQLKISPDAWQVCAEALAQRTYSDDHVKFFCFQVLEHQVKYKYSELTTVQQQLIRETLISWLQAQMLNPQPEKTFIRNKAAQVFALLFVTEYLTKWPKFFFDILSVVDLNPRGVDLYLRILMAIDSELVDRDVVHTSEEARRNTLIKDTMREQCIPNLVESWYQILQNYQFTNSEVTCQCLEVVGAYVSWIDLSLIANDRFINMLLGHMSIEVLREEACDCLFEVVNKGMDPVDKMKLVESLCQVLQSAGFFSIDQEEDVDFLARFSKLVNGMGQSLIVSWSKLIKNGDIKNAQEALQAIETKVALMLQLLIHEDDDISSNIIGFCYDYLHILKQLTVLSDQQKANVEAIMLAVMKKLTYDEEYNFENEGEDEAMFVEYRKQLKLLLDRLAQVSPELLLASVRRVFSSTLQNWQTTRFMEVEVAIRLLYMLAEALPVSHGAHFSGDVSKASALQDMMRTLVTSGVSSYQHTSVTLEFFETVVRYEKFFTVEPQHIPCVLMAFLDHRGLRHSSAKVRSRTAYLFSRFVKSLNKQMNPFIEDILNRIQDLLELSPPENGHQSLLSSDDQLFIYETAGVLIVNSEYPAERKQALMRNLLTPLMEKFKILLEKLMLAQDEERQASLADCLNHAVGFASRTSKAFSNKQTVKQCGCSEVYLDCLQTFLPALSCPLQKDILRSGVRTFLHRMIICLEEEVLPFIPSASEHMLKDCEAKDLQEFIPLINQITAKFKIQVSPFLQQMFMPLLHAIFEVLLRPAEENDQSAALEKQMLRRSYFAFLQTVTGSGMSEVIANQGAENVERVLVTVIQGAVEYPDPIAQKTCFIILSKLVELWGGKDGPVGFADFVYKHIVPACFLAPLKQTFDLADAQTVLALSECAVTLKTIHLKRGPECVQYLQQEYLPSLQVAPEIIQEFCQALQQPDAKVFKNYLKVFFQRAKP
B5: COBL (protein, UniProt O75128 1-1261, looked up)
Protein cordon-bleu: MDAPRASAAKPPTGRKMKARAPPPPGKAATLHVHSDQKPPHDGALGSQQNLVRMKEALRASTMDVTVVLPSGLEKRSVLNGSHAMMDLLVELCLQNHLNPSHHALEIRSSETQQPLSFKPNTLIGTLNVHTVFLKEKVPEEKVKPGPPKVPEKSVRLVVNYLRTQKAVVRVSPEVPLQNILPVICAKCEVSPEHVVLLRDNIAGEELELSKSLNELGIKELYAWDNRRETFRKSSLGNDETDKEKKKFLGFFKVNKRSNSKGCLTTPNSPSMHSRSLTLGPSLSLGSISGVSVKSEMKKRRAPPPPGSGPPVQDKASEKVSLGSQIDLQKKKRRAPAPPPPQPPPPSPLIPNRTEDKEENRKSTMVSLPLGSGSHCSPDGAPQVLSEAEETVSVGSCFASEDTTEDSGVMSSPSDIVSLDSQQDSMKYKDKWATDQEDCSDQDLAGTPDLGPQKSPLWEKNGSENSHLRTEKAVTASNDEEDLLIAGEFRKTLAELDEDLEEMEDSYETDTSSLTSSIHGASNHCPQDAMIPHGDTDAIPVTFIGEVSDDPVDSGLFSNRNNNAGSFDSEGVASRRDSLAPLQAEHSQPHEKAREEVPALHPASHDVGKGIRVALSNISKDGNLMETAPRVTSFASNLHTDNLNAKVKDKVYGCADGERTQATERVNSQPVNEKDSNDKNAALAPTSWHQRGQNPGKSYRLKHGLTTYKIIPPKSEMRCYDRDVSLSTGAIKIDELGNLVSPHATGIRIISLSSSVPEAESQPIGKVREFWRCNSVEKHLGRPSESSARGPPSTPVPTQTQNPESRLQADPKPISPQQKSAHHEGRNPLGEGRNQPPTMGMGHVRVPAAHTTEVTFLKPQRRTSSQYVASAIAKRIGAPKVHADVVRPHGYAEKGYAGKAPVLAAPPVTVKDDRTSSPHSETQGWKDGAQWPCVTPPNNHGEDLAVGAPPRGEVIGPHRKLSTQDRPAAIHRSSCFSLVQSSQRDRVSVGQSCGFSGKQSTSSQEASSASEPRRAPDGTDPPPPHTSDTQACSRELVNGSVRAPGHGEPSHPPGGSGTESHILLEREEKPSVFSTDGNETDSIWPPSIFGPKKKFKPVVQRPVPKDTSLHSALMEAIHSAGGKDRLRKTAEHTGEGRPAKLSYTEAEGERSALLAAIRGHSGTCSLRKVASSASEELQSFRDAALSAQGSESPLLEDLGLLSPPAIPPPPPPPSQALSAPRTASRFSTGTLSNTADARQALMDAIRSGTGAARLRKVPLLV
B6: FAM120A (protein, UniProt Q9NZB2 1-1118, looked up)
Constitutive coactivator of …: MGVQGFQDYIEKHCPSAVVPVELQKLARGSLVGGGRQRPPQTPLRLLVDADNCLHRLYGGFYTDWVSGGQWNHMLGYLAALAKACFGGNIELFVFFNGALEKARLHEWVKRQGNERQTAQQIVSHVQNKGTPPPKVWFLPPVCMAHCIRLALIRFHVKVAQSIEDHHQEVIGFCRENGFHGLVAYDSDYALCNIPYYFSAHALKLSRNGKSLTTSQYLMHEVAKQLDLNPNRFPIFAALLGNHILPDEDLASFHWSLLGPEHPLASLKVRAHQLVLPPCDVVIKAVADYVRNIQDTSDLDAIAKDVFQHSQSRTDDKVIRFKRAIGYYSATSKPMSFHPPHYLAARPGPFGMPGMVPPHVPPQMLNIPQTSLQAKPVAPQVPSPGGAPGQGPYPYSLSEPAPLTLDTSGKNLTEQNSYSNIPHEGKHTPLYERSSPINPAQSGSPNHVDSAYFPGSSTSSSSDNDEGSGGATNHISGNKIGWEKTGSHSEPQARGDPGDQTKAEGSSTASSGSQLAEGKGSQMGTVQPIPCLLSMPTRNHMDITTPPLPPVAPEVLRVAEHRHKKGLMYPYIFHVLTKGEIKIAVSIEDEANKDLPPAALLYRPVRQYVYGVLFSLAESRKKTERLAFRKNRLPPEFSPVIIKEWAAYKGKSPQTPELVEALAFREWTCPNLKRLWLGKAVEDKNRRMRAFLACMRSDTPAMLNPANVPTHLMVLCCVLRYMVQWPGARILRRQELDAFLAQALSPKLYEPDQLQELKIENLDPRGIQLSALFMSGVDMALFANDACGQPIPWEHCCPWMYFDGKLFQSKLLKASREKTPLIDLCDGQADQAAKVEKMRQSVLEGLSFSRQSHTLPFPPPPALPFYPASAYPRHFGPVPPSQGRGRGFAGVCGFGGPYGETVATGPYRAFRVAAASGHCGAFSGSDSSRTSKSQGGVQPIPSQGGKLEIAGTVVGHWAGSRRGRGGRGPFPLQVVSVGGPARGRPRGVISTPVIRTFGRGGRYYGRGYKNQAAIQGRPPYAASAEEVAKELKSKSGESKSSAMSSDGSLAENGVMAEEKPAPQMNGSTGDARAPSHSESALNNDSKTCNTNPHLNALSTDSACRREAALEAAVLNKEE

Test system: GFP-14-3-3β and its binding proteins
Assay: GFP-14-3-3β co-IP with LC-MS/MS label-free quantification, untreated versus PP1c-treated
Set-up: species or system human
Conditions: GFP-14-3-3β co-IP LC-MS/MS; PP1 vs untreated; student's t-test; label-free quantification, 3 replicates each

| Molecule | Difference (log2), PP1 vs untreated [log2] |
| --- | --- |
| B1 | -0.2324 |
| B2 | -0.2458 |
| B3 | -0.251 |
| B4 | -0.251 |
| B5 | -0.2795 |

Same assay, conditions: log2 difference; pairwise comparison PP1 vs untreated, label-free quantification, 3 replicates each

| Molecule | Difference (log2), PP1 vs untreated |
| --- | --- |
| B6 | 1.725 |

Test system: GFP-14-3-3β
Assay: GFP-14-3-3β co-IP with LC-MS/MS, untreated GFP-14-3-3β versus GFP control (14-3-3 interactome)
Format: binding, human
Conditions: GFP-14-3-3β co-IP LC-MS/MS; untreated vs GFP; student's t-test; label-free quantification, 3 replicates each

| Molecule | Difference (log2), untreated vs GFP [log2] |
| --- | --- |
| B1 | 2.262 |
| B2 | 1.174 |
| B3 | 0.347 |
| B4 | 1.37 |
| B5 | -0.6052 |

Same assay, conditions: log2 difference; pairwise comparison untreated vs GFP, label-free quantification, 3 replicates each

| Molecule | Difference (log2), untreated vs GFP |
| --- | --- |
| B6 | -0.07006 |
